B1: Guereza hepacivirus (nucleic acid, listed as Hepacivirus sp.)
chain: CACTCAATACTACACTCCGCATTTGGGGAGAAGCGCTGGCGTTCGCGGAACCGCGTTAACCATACGCGTAGTACGAGTGCGACAGACCCCGGTGCTACTGGTGGTAGCGAGACACGAGCCGAAGTCTGTGGGGGGAACTCCACTTAGAGGGCATGCCCGGGCGTAGGCTTCTGAGTTGGGATGGGCCCCAACTTGGCCCCTGAGTGGGGGGGTGTTACGACCTGATAGGGTGCGGGCTGGCGCCTACCACTTTCCAGTCGTACATGAGTC
modifications: lipid formulation
B2: Farmington virus (nucleic acid)
chain: ACGACGCATAAGCAGAGAAACATAAGAGACTATGTTCATAGTCACCCTGTATTCATTATTGACTTTTATGACCTATTATTAGACCCTTCACGGGTAAATCCTTCTCCTTGCAGTTCTCGCCAAGTACCTCCAAAGTCAGAACG
modifications: lipid formulation; source: /note="Description of Unknown: Farmington virus sequence"
B3: Hubei zhaovirus-like virus 1 (nucleic acid)
DNA: GTGCAGGATGGCCTTTCCCATCTTAAGTGGTTTGTAGGATTTCGTGGGTCCATACCCCCCGATTTCTTGGTACGTATTCCATGCACGGAGAATACGACCAAAACTCTTATTTCAAAAAATATTATTTTTTACTCTTGTGGGCTGAGTGCGACCCACCAGTTCCAGCTTAGCAACCTGGAAGTTGTTGGAGATTTATGGAACCAAATTACACATGCGTGGAGTGCCGCCACTCCGTATCTGTTCACTCATTACGCGATTAAGTTCTGCGACGAGACGAGCGAA
modifications: source: /note="Description of Unknown: Hubei zhaovirus-like virus 1 sequence"
B4: Human rhinovirus 1 (nucleic acid, listed as Rhinovirus sp.)
DNA: TTAAAACTGGGTGTGGGTTGTTCCCACCCACACCACCCAATGGGTGTTGTACTCTGTTATTCCGGTAACTTTGTACGCCAGTTTTTCCCTCCCCTCCCCATCCTTTTACGTAACTTAGAAGTTTTAAATACAAGACCAATAGTAGGCAACTCTCCAGGTTGTCTAAGGTCAAGCACTTCTGTTTCCCCGGTTGATGTTGATATGCTCCAACAGGGCAAAAACAACAGATACCGTTATCCGCAAAGTGCCTACACAGAGCTTAGTAGGATTCTGAAAGATCTTTGGTTGGTCGTTCAGCTGCATACCCAGCAGTAGACCTTGCAGATGAGGCTGGACATTCCCCACTGGTAACAGTGGTCCAGCCTGCGTGGCTGCCTGCGCACCTCTCATGAGGTGTGAAGCCAAAGATCGGACAGGGTGTGAAGAGCCGCGTGTGCTCACTTTGAGTCCTCCGGCCCCTGAATGCGGCTAACCTTAAACCTGCAGCCATGGCTCATAAGCCAATGAGTTTATGGTCGTAACGAGTAATTGCGGGATGGGACCGACTACTTTGGGTGTCCGTGTTTCACTTTTTCCTTTATTAATTGCTTATGGTGACAATATATATATTGATATATATTGGCATC
B5: Grapevine associated narnavirus-1 (nucleic acid, listed as Narnavirus sp.)
chain: GCCCGGGGGGTGCAGTCCTGTGAAAGGGTCTGCACCATACTATATATGTATATGATTACATCCCAAAAGGCGACTTCGTTCAGGTTTTAAATCTGACGTAGGTCCAGTAAATAAGCATGTCAAAACATGTAAGTTTATCCTGTAATCTACTCTCATAAGATGAGATAAGATGATATTGCAGTTCCCATGTAAATAAATCCATTATGAATTCATTCATATAAGGTAGAAGTGGTAACTATGGTTGAAACATTAATATAAAACGGTCATTTTGCATGAACGTCATTAAGGAACTGGCATACCAATGTCTATTTAGTGACTATGATATTTAGAGTATCCCTTATATTAATTAACAATTATTCCTTTTAGCATATCATCCGACAACAAATTTTAAAAGAAGAAATATTACTCATTAAAA
modifications: lipid formulation
B6: Feline infectious peritonitis virus (nucleic acid)
chain: ACTTTTAAAGTAAAGTGAGTGTAGCGTGGCTATAACTCTTCTTTTACTTTAACTAGCCTTGTGCTAGATTTGTCTTCGGACACCAACTCGAACTAAACGAAATATTTGTCTCTCTATGAAACCATAGAAGACAAGCGTTGATTATTTCACCAGTTTGGCAATCACTCCTAGGAACGGGGTTGAGAGAACGGCGCACCAGGGTTCCGTCCCTGTTTGGTAAGTCGTCTAGTATTAGCTGCGGCGGTTCCGCCCGTCGTAGTTGGGTAGACCGGGTTCCGTCCTGTGATCTCCCTCGCCGGCCGCCAGGAGA
modifications: lipid formulation; source: /note="Description of Unknown: Feline infectious peritonitis virus sequence"
B7: Enterovirus AN12 (nucleic acid, listed as Enterovirus sp.)
chain: TACCGCTGCACCAGTGAGCTGGTACGCTAGTACCTTCGCACGGAGTAGATGGCATCCCCCACCCCGTAACTTAGAAGCAAAGTACACATCTGGCCAATAGTGGCGCTGCATCCAGCCGCGCAACGGTCAAGCACTTCTGTTTCCCCGGTCCGCAAGGGTCGTTATCCGCCCAGTCCACTACGGAAAGCCTACTAACCATTGAAGCTATCGAGAGGTTGCGCTCGGCCACGACCCCGGTGGTAGCTCTGAGTGATGGGGCTCGCAAACACCCCCGTGGTAACACGGATGCTTGCCCGCGCGTGCACTCGGGTTCAGCCTATTGGTTGTTCACCTCAACATAGTGTAAATGGCCAAGAGCCTACTGTGCTGGATTGGTTTTCCTCCGGAGCCGTGAATGCTGCTAATCCCAACCTCCGAGCGTGTGCGCACAATCCAGTGTTGCTACGTCGTAACGCGTAAGTTGGAGGCGGAACAGACTACTTTCGGTACTCCGTGTTTCTTTTGTTTTATTTTGAATTTTATGGTGACAATTGCTGAGATTTGCGAATTAGCGACTCTACCGCTGAACATTGCCCTGTACTACCTAATCGCATTTCACAAAACCTCAGAGATACCAAGCTCTTACATTGATCTGCTTGTTTTCCTGAATCTCAAATATAAATTGGAACAAGCAAA
modifications: lipid formulation
B8: Goat torovirus (nucleic acid, listed as Torovirus sp.)
chain: GTACTTACAAGCGGGTTAAACCGCCCTCCGGAACGGTTACAACCCCCTCCCGAACGTGCGCTTGACGTGACTGGTTCTCAGTCTGGCTTTCTGAGAAATACTCCAGGGTTGTATCCCACCATCTTGACCTCTGGTCATTTTGGTAACACCATAACCAAACAAACTCTACACACCTAACCCACCTCCAGCTTGCTGCAGGCCTTTTGGACTAAACGGGTTTAGGTGTTTTGTGACCAACTCGTCTACCCACCTCCAGTTTTACTGCAGGCCTTTTTGGACTAAACGGCTTTAGACTTTTGTGGTTAGTTTTTAACTACCCACTGTTTAGCCGCCAACCTGATTTTCATTGTTGTAAAATTTTGTGTTTATACACTATTTTCATACGGTTGGCAGTTTGTTTGGTTGTTTGCACAGTTTTTGTTGATACCAATTTTTACTGTGCTTTTAGTGTATTCTGCTAAGGCTGTATTTTACATACTTAGTTTGGTTGAAGCAATTTTTACAACATTTATATTGTTTTTGATTTCTAAGGTAAAGAGTCTTAGGAAACACCATAGACGCCATTCTTGTGGTGTCTAGTTCCAACTAATCTGGCAAACAAGTACCAAGTCATTGACTCACTTTGGAGTGAGACTTACGAGTACCAATTTGCCTATTTCGGACATCCATATAAAG
modifications: lipid formulation
B9: Human TMEV-like cardiovirus (nucleic acid, listed as Cardiovirus sp.)
DNA: TCCGACGTGGTTGGAATTAACATCTTTTCCGACGAAAGTGCTATTATGCCTCCCCGATTGTGTGATGCTTTCTGCCCTGCTGGGCGGAGCGTCCTCGGGTTGAGAAACCTTGAATCTTTTCCTTTGGAGCCTTGGCTCCCCCGGTCTAAGCCGCTTGGAATATGACAGGGTTATTTTCCAAACTCTTTATTTCTACTTTCATGGGTTCTATCCATGAAAAGGGTATGTGTTGCCCCTTCCTTCTTTGGAGAATCTGCGCGGCGGTCTTTCCGTCTCTCAACAGGCGTGGATGCAACATGCCGGAAACGGTGAAGAAAACAGTTTTCTGTGGAAATTTAGAGTGGACATCGAAACAGCTGTAGCGACCTCACAGTAGCAGCGGATTCCCCTCTTGGCGACAAGAGCCTCTGCGGCCAAAAGCCCCGTGGATAAGATCCACTGCTGTGAGCGGTGCAACCCCAGCACCCTGGTTCGATGGCCATTCTCTATGGAACCAGAAAATGGTTTTCTCAAGCCCTCCGGTAGAGAAGCCAAGAATGTCCTGAAGGTACCCCGCGCGCGGGATCTGATCAGGAGACCAATTGGCAGTGCTTTACGCTGCCACTTTGGTTTAAAAACTGTCACAGCTTCTCCAAACCAAGTGGTCTTGGTTTTCCAATTTTGTTGACTGACAAT
B10: Poecivirus BCCH-449 (nucleic acid, listed as Poecivirus sp.)
DNA: ACTACACAATCGCAACACGCGCAAGTTTGTAGTTTGATTGGCGTGCAAATGTCAAATCAAGCATATAACACAATTTGGTGGCTGTTGGTGTTTGTTATAGGAATTTTGGTTGTGTTGAAATTGTGGATGTGTAGGAAATATGCACAATTACGTCAGCGTCAGGAGTTTTATAACCTGGCGCAACACCAAAATGGTCTTCGCGCTTTAACATCACCAGCGAGGTGTAAACAAATTGAAGTTGAATTAGATCGTGTATAGGCCAGGGAACCATCCCTCCCAACGCCACATCTTGTGGGGAAGTTGGGATAATGGTGGGTCTATATGAATTGGTCTGTAGACCCACAGTGAAGAGTGAATAGTATGCTTGCGGTTCCATTTGTTAATGGTCTAGCATGGGTGGGGGCGGCAACCCCGTGAGGGGTTCCCCACTGGCCAAAAGCCCAGGGGTTAGTCATTTCAACCAAGGAAGCTGGTAACCTGGTGACCTGAACTTGAGTGGTGAGACCCCCTTGCTAGAGTGTGTAAACCGATTGTAAGCATTTTGTTTGCTTAGTATCTGTGGTATAAGCAGTCAATTTTGTATAGGCTCAAGGCTGTGGTAGTTAGTAGATGCCCGGAAGGTTATTACTGATCCGGGGACCGTGACTATACATTAGGTAAACCGGTTTAAAAACC
modifications: lipid formulation

These molecules were tested on HEK293 cells. Conditions: circular RNA encoding Gluc with the listed IRES (UTR truncated to 675 nt) transfected into HEK293 cells; supernatant after 24 hours.
Assay type: cell-based, human

Row | Molecule | Expression (luminescence from secreted Gluc protein)
1 | B1 | 1.38E+05
2 | B2 | 1.22E+05
3 | B3 | 1.03E+05
4 | B4 | 7.40E+07
5 | B5 | 1.30E+05
6 | B6 | 1.35E+05
7 | B7 | 3.87E+06
8 | B8 | 1.19E+05
9 | B9 | 4.48E+07
10 | B10 | 3.43E+05

Reference: patent publication US20240245805A1 (Orna Therapeutics, Inc., priority 2020, published 2024)
